Test results from publication PMC5041479.
Read-outs that look alike come from different tables or passages of the source.

What was measured:
[1] = biological target: T1, Pif1p (yeast, UniProt P07271 40-859); test: fluorescence anisotropy
T1 sequence: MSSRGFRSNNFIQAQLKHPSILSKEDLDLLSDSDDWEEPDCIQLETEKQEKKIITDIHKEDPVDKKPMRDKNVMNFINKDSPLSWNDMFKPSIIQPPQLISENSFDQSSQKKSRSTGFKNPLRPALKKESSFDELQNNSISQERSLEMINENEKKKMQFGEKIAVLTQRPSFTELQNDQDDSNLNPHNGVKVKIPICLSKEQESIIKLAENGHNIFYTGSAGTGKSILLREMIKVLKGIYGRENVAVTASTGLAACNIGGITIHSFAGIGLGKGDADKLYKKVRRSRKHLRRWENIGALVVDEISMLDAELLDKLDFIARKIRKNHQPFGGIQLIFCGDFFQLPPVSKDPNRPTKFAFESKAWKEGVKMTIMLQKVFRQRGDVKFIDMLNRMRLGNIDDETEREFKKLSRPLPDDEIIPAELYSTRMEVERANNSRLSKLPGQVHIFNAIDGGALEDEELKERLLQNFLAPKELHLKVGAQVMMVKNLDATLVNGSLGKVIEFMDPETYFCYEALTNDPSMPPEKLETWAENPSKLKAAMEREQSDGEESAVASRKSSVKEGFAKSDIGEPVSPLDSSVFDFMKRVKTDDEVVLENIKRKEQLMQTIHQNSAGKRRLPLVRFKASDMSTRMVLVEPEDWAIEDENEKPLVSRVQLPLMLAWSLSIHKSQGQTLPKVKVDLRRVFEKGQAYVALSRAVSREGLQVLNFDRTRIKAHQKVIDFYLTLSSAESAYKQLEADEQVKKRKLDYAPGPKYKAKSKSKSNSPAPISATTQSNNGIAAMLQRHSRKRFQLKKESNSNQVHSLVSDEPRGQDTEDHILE

[2] = biological target: T1, Pif1p; test: fluorescence anisotropy; remark: listed apart in the source

B1: FAM-GR12 (ssDNA)
DNA: GTGTGTGTGGTG
B1 showed a Kd [1] of 8.7 nM.

B2: FAM-T12 (ssDNA)
DNA: TTTTTTTTTTTT
B2 was tested, and the Kd [2] was 25.2 nM.
